Patent US20250064852A1 (University of Pennsylvania, published 2025)

How the values were obtained:
[1] = target: T1, human CD5 (human, UniProt P06127 25-495); assay: cell microarray (Retrogenix): labelled CAR T cells on fixed HEK293 cells expressing human membrane proteins; library and confirmation screen
T1 construct: whole, on cells; also called primary target CD5
T1 sequence (looked up): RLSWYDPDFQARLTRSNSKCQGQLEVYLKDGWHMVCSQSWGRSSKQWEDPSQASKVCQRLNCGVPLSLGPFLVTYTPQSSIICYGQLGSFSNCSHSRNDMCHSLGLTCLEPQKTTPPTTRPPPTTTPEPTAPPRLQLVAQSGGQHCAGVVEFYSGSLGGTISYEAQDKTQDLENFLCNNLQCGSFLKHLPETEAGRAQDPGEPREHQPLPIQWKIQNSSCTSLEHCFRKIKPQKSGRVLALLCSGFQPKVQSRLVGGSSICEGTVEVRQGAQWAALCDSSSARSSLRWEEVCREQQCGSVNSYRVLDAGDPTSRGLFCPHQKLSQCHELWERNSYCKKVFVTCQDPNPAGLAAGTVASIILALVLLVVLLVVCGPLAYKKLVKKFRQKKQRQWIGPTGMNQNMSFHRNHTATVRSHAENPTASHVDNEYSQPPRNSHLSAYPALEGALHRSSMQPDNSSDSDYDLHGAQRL
From the text: CART5 on- and off-targeting specificity analysis: For a library screen, CD5 KO CART5 cells were fluorescently labelled and screened for binding against fixed HEK293 cells/slides expressing 5828 human plasma membrane proteins and cell surface tethered human secreted proteins+398 human heterodimers in duplicates (18 slide sets, n=2 slides per slide set, 3.2×10⁷ cells/slide). In total, 22 primary hits (duplicate spots) were identified by analyzing fluorescence (Alexa Fluor 647 and ZsGreen1) on ImageQuant. There were a range of intensities (signal to background) from very weak to strong. A confirmation screen was performed by testing Mock KO UTD and CD5 KO CART5 cell binding against all 22 hits in duplicate on new slides. Library and confirmation screens as well as analyses were performed at Retrogenix, Charles River Laboratories.

[2] = target: T2, recombinant human CD5 protein conjugated to a polyhistidine (His) tag at the C-terminus (Sino Biologicals); … (human, UniProt P06127 25-372); assay: flow cytometry on CAR T cells, APC anti-6x His-tag secondary antibody
T2 construct: Bought reagent; also called recombinant CD5 protein; not shown: C-terminal polyhistidine tag
T2 sequence (looked up): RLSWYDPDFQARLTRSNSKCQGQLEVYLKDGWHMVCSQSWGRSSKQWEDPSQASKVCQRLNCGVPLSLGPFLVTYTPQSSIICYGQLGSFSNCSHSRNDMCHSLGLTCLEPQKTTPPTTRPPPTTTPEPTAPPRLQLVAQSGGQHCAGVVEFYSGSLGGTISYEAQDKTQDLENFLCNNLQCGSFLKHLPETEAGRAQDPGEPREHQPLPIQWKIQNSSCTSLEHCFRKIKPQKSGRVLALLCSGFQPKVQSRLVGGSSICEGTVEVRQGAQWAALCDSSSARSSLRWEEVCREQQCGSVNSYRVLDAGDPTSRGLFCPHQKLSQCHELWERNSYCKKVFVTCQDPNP
From the text: General flow cytometry: Cells were resuspended in FACS staining buffer (phosphate buffered saline (PBS)+2% FBS) using one or more of the following antibodies: CD5 (UCHT2; BioLegend; Cat #300612), CD4, CD8 (RPA-T8; BD Biosciences; Cat #563795), CD45RA (L48; BD Biosciences; Cat #347723), CCR7 (G043H7; BioLegend; Cat #353214), PD1 (EH12.1; BD Biosciences; Cat #562516), LAG3 (3DS223H; Invitrogen; Cat #11-2239-42), CD3 (UCHT1; BD Biosciences; Cat #565119 or OKT3; BioLegend; Cat #317334), hCD45 (2D1; BioLegend; Cat #368522), or mCD45. CAR5 was detected by incubating cells with recombinant human CD5 protein conjugated to a polyhistidine (His) tag at the C-terminus (Sino Biologicals; Cat #11027-H08H) followed by an Allophycocyanin (APC) anti-6× His-tag secondary antibody (Abcam; Cat #ab72579). CARmeso was detected using a Biotin-SP goat anti-human F(ab′)₂ antibody (Jackson ImmunoResearch; Cat #109-066-097) followed by an R-Phycoerythrin (PE) streptavidin secondary antibody (Jackson ImmunoResearch; Cat #016-110-084). All changes in overall tumor or T cell counts reflected by absolute cell counts were determined using Flow-Count Fluorospheres (Beckman; Cat #754053). Cell viability was established using ViaKrome 808 Fixable Viability Dye (Beckman; Cat #C36628) and data were acquired on an LSRII Fortessa Cytometer (BD) or CytoFlex LX Flow Cytometer (Beckman). […]

B1: CD5-17H2L-3054 CAR (anti-CD5 chimeric antigen receptor, clone #17, heavy-to-light chain orientation) (other)
chain: GSEVQLVESGPGLVQPSQSLSITCTVSGFSLTNYDVHWVRQSPGKGLEWLGVIWNYGNTDYNAAFISRLSIRKDSSKSQVFFTMSSLQTPDTAIYYCARNHGDGYYNWYFDVWGTGTTVTVSSGGGGSGGGGSGGGGSNIVLTQSPSSLSESLGGKVTITCKASQDINKYIAWYQYKPGKGPRLLIHYTSTLQPGIPSRFSGSGSGRDYSFSISNLEPEDIATYYCLQYDNLWTFGGGTKLEIKSRTTTPAPRPPTPAPTIASQPLSLRPEACRPAAGGAVHTRGLDFACDIYIWAPLAGTCGVLLLSLVITLYCHMKRGRKKLLYIFKQPFMRPVQTTQEEDGCSCRFPEEEEGGCELTSRVKFSRSADAPAYQQGQNQLYNELNLGRREEYDVLDKRRGRDPEMGGKPRRKNPQEGLYNELQKDKMAEAYSEIGMKGERRRGKGHDGLYQGLSTATKDTYDALHMQALPPR
notes: also called CAR5; anti-CD5 CAR
binding result [1]: binds | binding result [2]: binds
